# Source: patent US20160297875A1 (CASE WESTERN RESERVE UNIVERSITY, published 2016)
# B1: purified, recombinant human MRP-14 (ligand, UniProt P06702 1-114, looked up)
# chain: MTCKMSQLERNIETIINTFHQYSVKLGHPDTLNQGEFKELVRKDLQNFLKKENKNEKVIEHIMEDLDTNADKQLSFEEFIMLMARLTWASHEKMHEGDEGPGHHHKPGLGEGTP
# notes: Bought protein; also called purified MRP-14; purified human MRP-14 protein
# Columns and labels:
# [1] = target: human platelet CD36 (human) (UniProt P16671); test: cell-based or functional assay
# BSA = target: T1, BSA (bovine, UniProt P02769 25-607); test: plate binding assay, wells coated with BSA (10 µg/mL), detection with anti-human MRP-14 antibody and HRP-conjugated secondary antibody at 450 nm
# T1 construct: also called bovine serum albumin
# T1 sequence (P02769 25-607 limits assumed): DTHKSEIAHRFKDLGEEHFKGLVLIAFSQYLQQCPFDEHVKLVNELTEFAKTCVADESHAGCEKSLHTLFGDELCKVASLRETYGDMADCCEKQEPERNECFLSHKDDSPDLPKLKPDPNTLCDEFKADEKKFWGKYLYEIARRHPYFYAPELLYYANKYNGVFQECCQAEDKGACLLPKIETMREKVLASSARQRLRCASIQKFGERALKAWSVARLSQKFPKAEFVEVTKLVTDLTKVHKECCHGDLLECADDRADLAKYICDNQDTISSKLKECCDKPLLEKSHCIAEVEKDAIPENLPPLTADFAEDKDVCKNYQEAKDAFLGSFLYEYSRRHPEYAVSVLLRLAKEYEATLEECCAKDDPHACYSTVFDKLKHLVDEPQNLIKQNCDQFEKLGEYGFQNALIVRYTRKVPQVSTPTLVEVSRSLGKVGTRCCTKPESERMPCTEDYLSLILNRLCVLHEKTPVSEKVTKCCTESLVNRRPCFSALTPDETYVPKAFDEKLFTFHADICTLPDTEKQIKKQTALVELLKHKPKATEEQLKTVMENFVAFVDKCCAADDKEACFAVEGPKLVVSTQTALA
# Method: High-protein binding plate (Nunc, Thermo Scientific) was coated with purified CD36 (Abcam) or BSA (10 μg/mL) overnight at 4° C. After blocking with 10% BSA at RT for 2 hours, purified human MRP-14 protein (0-2.5 μg/ml) was added and incubated for 2 hours at RT. After washing, plate was incubated with anti-human MRP-14 antibody for one hour followed by washing and incubation with HRP-conjugated secondary antibody that was detected with TMB substrate (Thermo Scientific) at 450 nm.
# human platelet CD36 (human), sequence (P16671 2-472 limits assumed): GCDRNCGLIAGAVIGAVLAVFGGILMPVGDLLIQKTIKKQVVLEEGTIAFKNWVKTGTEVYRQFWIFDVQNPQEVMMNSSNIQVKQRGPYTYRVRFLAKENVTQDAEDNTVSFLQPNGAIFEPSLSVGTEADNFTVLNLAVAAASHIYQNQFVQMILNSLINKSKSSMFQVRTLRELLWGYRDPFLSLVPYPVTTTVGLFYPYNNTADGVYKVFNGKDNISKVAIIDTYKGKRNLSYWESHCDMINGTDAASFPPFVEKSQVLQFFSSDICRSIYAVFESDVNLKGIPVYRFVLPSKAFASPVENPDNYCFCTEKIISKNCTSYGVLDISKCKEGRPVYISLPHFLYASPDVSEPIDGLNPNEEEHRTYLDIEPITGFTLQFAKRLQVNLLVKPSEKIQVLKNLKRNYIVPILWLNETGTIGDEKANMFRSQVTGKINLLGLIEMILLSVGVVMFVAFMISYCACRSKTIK
Molecule,percentage of inhibition of shear-induced thrombus formation in anticoagulated human whole blood (antibody 10 µg/ml) [1] [%],binding result (BSA)
anti-human CD36 monoclonal antibody (clone FA6-152),53.8,
B1,,no binding (tested: 0-2.5 µg/ml MRP-14)
